We go through one protein from patent US20200345898.

The target in the series is T1, lysyl oxidase (LOX), recombinant human, in supernatant of doxycycline-induced HEK293 (Flp-In T-REx 293) cells.
T1 chain: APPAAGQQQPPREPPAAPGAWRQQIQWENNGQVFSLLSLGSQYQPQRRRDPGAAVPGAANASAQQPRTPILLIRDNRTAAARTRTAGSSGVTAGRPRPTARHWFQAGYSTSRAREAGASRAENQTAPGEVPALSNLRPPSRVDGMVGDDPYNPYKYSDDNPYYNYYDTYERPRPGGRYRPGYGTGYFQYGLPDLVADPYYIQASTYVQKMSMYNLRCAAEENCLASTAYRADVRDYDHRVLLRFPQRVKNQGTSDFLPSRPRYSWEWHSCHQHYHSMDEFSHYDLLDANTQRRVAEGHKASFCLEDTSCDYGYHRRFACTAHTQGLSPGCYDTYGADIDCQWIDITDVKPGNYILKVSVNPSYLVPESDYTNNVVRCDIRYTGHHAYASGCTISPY

B1: bone morphogenetic protein-1 (BMP1), recombinant human, in supernatant of doxycycline-induced HEK293 (Flp-In T-REx 293) cells (protein)
chain: AATSRPERVWPDGVIPFVIGGNFTGSQRAVFRQAMRHWEKHTCVTFLERTDEDSYIVFTYRPCGCCSYVGRRGGGPQAISIGKNCDKFGIVVHELGHVVGFWHEHTRPDRDRHVSIVRENIQPGQEYNFLKMEPQEVESLGETYDFDSIMHYARNTFSRGIFLDTIVPKYEVNGVKPPIGQRTRLSKGDIAQARKLYKCPACGETLQDSTGNFSSPEYPNGYSAHMHCVWRISVTPGEKIILNFTSLDLYRSRLCWYDYVEVRDGFWRKAPLRGRFCGSKLPEPIVSTDSRLWVEFRSSSNWVGKGFFAVYEAICGGDVKKDYGHIQSPNYPDDYRPSKVCIWRIQVSEGFHVGLTFQSFEIERHDSCAYDYLEVRDGHSESSTLIGRYCGYEKPDDIKSTSSRLWLKFVSDGSINKAGFAVNFFKEVDECSRPNRGGCEQRCLNTLGSYKCSCDPGYELAPDKRRCEAACGGFLTKLNGSITSPGWPKEYPPNKNCIWQLVAPTQYRISLQFDFFETEGNDVCKYDFVEVRSGLTADSKLHGKFCGSEKPEVITSQYNNMRVEFKSDNTVSKKGFKAHFFSEKRPALQPPRGRPHQLKFRVQKRNRTPQ
As to B1, the “LOX enzymatic activity, fluorometric assay” value is recorded as “the induction of the expression of LOX promoted a strong increase in LOX enzymatic activity, that was further augmented upon incubation with BMP1 supernatants in a time-dependent manner”; the “LOX immunoreactivity by western blotting in supernatants of fibroblast cultures, one day” value was “the combination of recombinant LOX and BMP1 resulted in complete proteolysis of the pro-LOX”.
